Test results reported in paper PMC7755894.

Molecular target: recombinant hCD25 (human IL-2Rα) (human) (UniProt P01589)
UniProt P01589, sequence (P01589 22-240): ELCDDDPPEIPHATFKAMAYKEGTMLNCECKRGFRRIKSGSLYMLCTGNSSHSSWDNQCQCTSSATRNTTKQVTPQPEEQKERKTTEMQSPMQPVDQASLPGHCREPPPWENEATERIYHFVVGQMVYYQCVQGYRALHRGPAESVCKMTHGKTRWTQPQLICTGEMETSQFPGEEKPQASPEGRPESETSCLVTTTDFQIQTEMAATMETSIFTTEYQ

NARA1leukin, sequence (P60568 whole entry, looked up): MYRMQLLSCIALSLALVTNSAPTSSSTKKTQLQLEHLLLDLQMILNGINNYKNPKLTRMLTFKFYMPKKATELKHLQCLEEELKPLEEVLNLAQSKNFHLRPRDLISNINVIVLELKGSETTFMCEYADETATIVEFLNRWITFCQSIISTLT

Substance: NARA1leukin (from UniProt P60568 97-153; P60568 22-96)
- fold decrease in pSTAT5 in human CD4+ CD25+ Treg cells (PBMCs, 15 min at 37 °C); stimulation by NARA1leukin compared to hIL-2/NARA1 complexes: 30 fold
